Consider 17 sequences from the DeepSol protein solubility set.

The nature of this data set: soluble on expression in E. coli; label from the status in PepcDB or PDB records.
For the sequence “RHAGVVTAVERHGESLLEVTCRLQGDWSHRAGQFAFLTCDRLEGAHPFTIASADRGCGEVRFSIKALGDYTRRLQDNLEVGARVEVEGPYGCFDFRRGLAGRQVWVAAGIGVTPFIAWLESLQAAPESAPSVELHYCVRNSQEALFAGRLRELCEH”, the “soluble on expression in E. coli” value is recorded as “not soluble”.

In the case of “MALIEYNPPLEPYLDIIYQDNHLCVVNKPSGLLSVPGNQPQYYDSAMSRVKEKFGFCEPAHRLDMATSGIIVFALSKAADRELKRQFREREPKKHYQAIVWGHLENDYGEVNLPMICDWENRPRQRLDFVLGKRAVTKFEVLARLPNNSTRVKLTPVTGRSHQLRLHMLALGHPILGDKFYSHPQAKVMSPRLCLHAEELTITHPITGETMTFNAKSDFLEHHHHHH”, the “soluble on expression in E. coli” value was “not soluble”. In the case of “MTTQTIDSAPHATWFVGASYGGTDDQMPRFLAEGIWENGYDDKLLEVVRSMRPGERIAIKSSYTRKHGLPFDSRGRAVSVMGIKAVGTITENLNDGKRVKVDWAKVEPVREWYFYTHRATIWRVLPGEWMNDALIAFAFDGKPQDVDRFRNEPFWRERYGTTSPEKQRFEWTDFYEAVAEKLLAHADDRTPLIEGIHEIASRVPGLTYLQDKFPDGTSGPLRDICPFTTMGTFNRSMTDANRKTLAGELAKLLGVTVPVPPSFEGIPVLNNQRSWFFAYADKRGAGDIDALWKVFVAASKMVDGDQLDTRDAFIRAYDEATQVWGVAWNLSTGLYWAHPWEFLTLDSQSRHYINKRLGLNVAISGQQGPCDGRAYLKLLDDLRSRFGEDGYPVHSFPDLSLASWMYKDPVDEPVPAGDIGTNAGAEQETEGEVREAFQVAAPIVPYSVEDILKDGCFLERAEIDRLLDRLRTKKNLILQGPPGTGKTWLAKRLAFALMGQKDDSKVRAVQFHPNLSYEDFVRGWRPTGEGKLSLADGVFMEAIKAASKDPSSKFVVVIEEINRGNPAQIFGELLTLLEAGKRTPNEALELCYPDADGKRRPVHIPENLYVVGTMNIADRSLALVDLALRRRFAFVGLEPRLGQVWRDWVVKECAVDPGLVADIERRIAELNDQIAADARLGKQFRIGHSYVTPAHRLEAGDTKKWFLQVVETEIGPLLDEYWFDAPDEAQKAIARLTQGWLEHHHHHH” it was “soluble”; in that of “MGMACLTMTEMEATSTSPVHQNGDIPGSANSVKQIEPVLQVYLYHSLGQAEGEYLKFPSGEYVAEEICVAASKACGITPVYHNMFALMSETERIWYPPNHVFHIDESTRHDILYRIRFYFPHWYCSGSSRTYRYGVSRGAEAPLLDDFVMSYLFAQWRHDFVHGWIKVPVTHETQEECLGMAVLDMMRIAKEKDQTPLAVYNSVSYKTFLPKCVRAKIQDYHILTRKRIRYRFRRFIQQFSQCKATARNLKLKYLINLETLQSAFYTEQFEVKESARGPSGEEIFATIIITGNGGIQWSRGKHKESETLTEQDVQLYCDFPDIIDVSIKQANQECSNESRIVTVHKQDGKVLEIELSSLKEALSFVSLIDGYYRLTADAHHYLCKEVAPPAVLENIHSNCHGPISMDFAISKLKKAGNQTGLYVLRCSPKDFNKYFLTFAVERENVIEYKHCLITKNENGEYNLSGTKRNFSNLKDLLNCYQMETVRSDSIIFQFTKCCPPKPKDKSNLLVFRTNGISDVQISPTLQRHNNVNQMVFHKIRNEDL”, “not soluble”. In the case of “MCRYARSYLLHAFDYTLFVKARLNMAFMISMPAIELAGLTIQVCQFDPQQFDEDQQHYLAPPTYHSLHKAVVKRQAEFVAGRKLAQQALKQIGQGYDRPIAIGTHREPLWPAGITGSIAHCDGWAVCTVLKAEHLSLGIDIEHRLAHQTASEVQAIIGTAQEWALLAQQFDLASAVTLLFSAKESLFKALFPQVHLYLDFCDAQLSSLEPNKMSFTLTRVPNAAQQSCEVYFRWFEQQRVLTVSVLPMLGKIEYHVPTLPT” it was “not soluble”; in that of “GGNSKSRNDRTETVDKEVIKAPEFDADSAYQYIQVQADFGPRVPNTQAHKECGEYLAGQLEKFGAKVYNQYADLIAYDGTILKSRNIIGAYKPESKKRILLCAHWDSRPYADNDPDPKNHHTPILGVNDGASGVGVLLEIARQIQKEQPALGIDIVFFDSEDYGIPEFYDGKYKQDTWCLGSQYWARTPHVQNYNARYGILLDMVGGKDATFYYEGYSARTARSEMKKIWKKAHELGYGKYFVKEDGGETVDDHIYVNKLARIPCVDIINYDAGNPQSSFGSFWHTVNDTMENIDRNTLKAVGQTVMDVIYNEK”, “soluble”. Consider “SAAQKINEGLEHLAKAEKYLKTGFLKWKPDYDSAASEYGKAAVAFKNAKQFEQAKDACLREAVAHENNRALFHAAKAYEQAGMMLKEMQKLPEAVQLIEKASMMYLENGTPDTAAMALERAGKLIENVDPEKAVQLYQQTANVFENDERLRQAVELLGKASRLLVRGRRFDEAALSIQKEKNIYKEIENYPTCYKKTIAQVLVHLHRNDYVAAERCVRESYSIPGFNGSEDCAALEQLLEGYDQQDQDQVSDVCNSPLFKYMDNDYAKLGLSLVVPGGGIKKKSPATPQAKPDGVTATAADEEEDEYSGGLC”, for which the “soluble on expression in E. coli” value was “soluble”. The value for “MHHHHHHSSGRENLYFQGSEREASRLDKFKQLLAGPNTDLEELRRLSWSGIPKPVRPMTWKLLSGYLPANVDRRPATLQRKQKEYFAFIEHYYDSRNDEVHQDTYRQIHIDIPRMSPEALILQPKVTEIFERILFIWAIRHPASGYVQGINDLVTPFFVVFICEYIEAEEVDTVDVSGVPAEVLCNIEADTYWCMSKLLDGIQDNYTFAQPGIQMKVKMLEELVSRIDEQVHRHLDQHEVRYLQFAFRWMNNLLMREVPLRCTIRLWDTYQSEPDGFSHFHLYVCAAFLVRWRKEILEEKDFQELLLFLQNLPTAHWDDEDISLLLAEAYRLKFAFADAPNHYKK” was “soluble”. The value for “MPPFYKRLHRKKDGRELFLYGLMPLEGPPLPEDAEPFRPAPHLRYHPLRGEWVVYAAHRQGRTFLPPKEHCPLCPSREGGFPTEIPFPSFQVAVFENRFPSFVEEAPPPPEGLPVPAGRALGRCEVVVYTPAHTGSLATLTEEERLLLAWAWRDRYEALYALPGVRFVMPFENRGEAVGVTLHHPHGQIYAYPFVPPVLERESQAFRERPVLLRLFPSLGPYVVDEEEGFLAFVPPFARYPFEVWVAPVERHPGPWTFSEGEMAAFARLLGRVVARYDALFGEPFPYVMVFHAAPLGEEATFHFHVEFYPPRRTRDKLKFLAGTELGAGTFVVDALPEETAKALRAALP” was “soluble”; that for “MSHPVVSKEEWLAARRDLLVKEKELTRARDRLNEARRALPWEEVTKDYIFDAPSGPRSLQELFGDCSQLIVYHFMLAPDWEEGCVGCSFFADHVDGALVHLRHGDAGFVAVSRAPLEKIEGYKNRMGWKFPWVSAEGSDFNYDYQASFRDEDVEKGEITYNYRDMAPFGDLKDLHGISVFAKGEDGKIYHTYSTYARGAEQTLGTLMLLDLVPKGRNEDEVMDWVRRHDQYEDAPKAASCCH” was “not soluble”.

Consider “SATAQLSHCITIHKASKETVFPSQITNEHESLKMVKKLFATSISCITYLRGLFPESSYGERHLDDLSLKILREDKKCPGSLHIIRWIQGCFDALEKRYLRMAVLTLYTDPMGSEKVTEMYQFKFKYTKEGATMDFDSHSSSTSFESGTNNEDIKKASVLLIRKLYILMQDLEPLPNNVVLTMKLHYYNAVTPHDYQPLGFKEGVNSHFLLFDKEPINVQVGFVSTGFHSMKVKVMTEATKVIDLENNLFRENSTTEIAHQGLDCDEEEECNDHIQRMNFVCSQQSSECSRKKRKVSEPVKVFIPNRK”, for which the “soluble on expression in E. coli” value is given as “soluble”. The value for “MDKFRVYGQSRLSGSVNISGAKNAALPILFAAILATEPVKLTNVPELKDIETTLKILRQLGVVVDRDATGAVLLDASNINHFTAPYELVKTMRASIWALAPLVARFHQGQVSLPGGCSIGARPVDLHISGLEKLGADIVLEEGYVKAQVSDRLVGTRIVIEKVSVGATLSIMMAATLAKGTTVIENAAREPEIVDTADFLNKMGAKITGAGSAHITIEGVERLTGCEHSVVPDRIETGTFLIAAAISGGCVVCQNTKADTLDAVIDKLREAGAQVDVTENSITLDMLGNRPKAVNIRTAPHPGFPTDMQAQFTLLNMVAEGTSIITETIFENRFMHIPELIRMGGKAEIEGNTAVCHGVEQLSGTEVIATDLRASISLVLAGCIATGETIVDRIYHIDRGYEHIEDKLRGLGAKIERFSGSDEA” was “soluble”; that for “MADTLGKSELEVIKPQKREIRKGQVRKHIITVKVRNEMGVLARIATLIAGKGYNIEGLSVGETHEKGISRMTIEVIGDDIVIEQVVKQLRRLIDTLKVSDLTDVPHVERELALIKVYTPSSRARDEVLRITEIFRGKVVDVSPDTYTIEVTGDEDKINAMIELLKPFGIKEMARTGKVAMRREMSIKEEENELEHHHHHH” was “not soluble”.

With “MSLFGIEVEEEASQIIHILLLQYISKSYSTYSLRSNQGYNPQTLDNNQQIYNSQLSNGNQQSEITCPYCHSTQVTAGKKGFGVGKAIVGGLLLGPVGLLGGLIGSKNIEFVYNCITLSASNNTNSAQWLREQSNNAKNIVNRYLDNDFAEALVAGSALVAMADGVIEYSERERLINYFKTSQEMKHIDTNMVLSKFDCYTQKLQRDFMMGKQNYEGHHHHHH”, the “soluble on expression in E. coli” value is “not soluble”. As for “MKVLHMNAGAEEGGGKTHIISLLSQFSKEEVELMVFEEGAIAREARNLGIQVHVFTQSSRYDLSILSKIKAFINENQFDIVHTHGARANFYLSLLKKGIKAKWIMTVHSDPTLDFMKRGLKGWVFTKLNLRSFRKVDLFFAITENFKRNIIKLGVPEEKICTVYNGIEYDSNPAKPYDKSEFGIDEGIFTAIQVARLHPVKGHDILFEALQKIKIPNIKVLLLGDGPIEAELKEMVKQKGLEDKVMFLGFRIDSKELYASAHINLLTSYSESFPLVLLEAANQRLTSIATNVGDMKKLIVDDTYGWIVPIGDADSLANALENAYEKWLNGELEAMGNRLYTHASTHFSLKNLYEDTYNAYKTLLLK”, the “soluble on expression in E. coli” value is listed as “not soluble”. The value for “MCYIEITKDNIEDNHICCALSTKQYEHAVNEKKRWLKARMDEGLVFYRLHERAKVFIEYLPANEAWVPINAPNFMYINCLWVSGRYKNNGHAKRLLDKCIADAKACGMDGIIHIAGKKKLPYLSDKHFFEHMGFTLQDEAAPYFQLMALTWNGLADSPAFKSQVKSDSINEKGITIYYTAQCPFAVGMINDLRELTEKKGVQFQSIQLSSKEEAQKSPAIWTTFSVFFDGRFVTHEIMSINKFEKLLNTLA” was “not soluble”; that for “AYVITEPCIGTKDASCVEVCPVDCIHEGEDQYYIDPDVCIDCGACEAVCPVSAIYHEDFVPEEWKSYIQKNRDFFKK” was “soluble”.
